Experimental data reported in publication PMC7496416 (Molecular microbiology, 2020).

Experiments:
[1] = target: T1, NasR (His10-MBP-NasR) (Klebsiella oxytoca, UniProt Q48468); experiment: fluorescence anisotropy of Cy3-labelled P1P2 nasF leader RNA, ion titration; format: biochemical; settings: 8 uM protein; 50 mM HEPES pH 7.5, 100 mM KCl, 1 mM MgCl2; allosteric activator, NIT domain
T1 sequence (Q48468 1-396): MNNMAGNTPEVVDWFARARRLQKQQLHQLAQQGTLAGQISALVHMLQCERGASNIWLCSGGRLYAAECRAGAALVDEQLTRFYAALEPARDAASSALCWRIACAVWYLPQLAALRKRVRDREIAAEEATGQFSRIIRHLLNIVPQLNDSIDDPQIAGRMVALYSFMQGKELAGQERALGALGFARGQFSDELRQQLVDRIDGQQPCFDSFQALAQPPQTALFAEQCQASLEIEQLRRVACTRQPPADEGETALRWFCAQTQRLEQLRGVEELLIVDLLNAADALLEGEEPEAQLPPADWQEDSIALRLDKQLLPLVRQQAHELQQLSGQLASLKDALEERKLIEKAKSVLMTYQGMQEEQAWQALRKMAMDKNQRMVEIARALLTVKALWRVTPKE

[2] = system: NasR K347R (Klebsiella oxytoca); experiment: fluorescence anisotropy; settings: 50 mM HEPES pH 7.5, 100 mM KCl, 1 mM MgCl2, with or without 1 mM KNO3; 50 nM Cy3-RNA final; 30 min in the dark, temperature not stated; Hill fit
[3] = system: NasR R340K (Klebsiella oxytoca); experiment: fluorescence anisotropy; settings: 50 mM HEPES pH 7.5, 100 mM KCl, 1 mM MgCl2, with or without 1 mM KNO3; 50 nM Cy3-RNA final; 30 min in the dark, temperature not stated; Hill fit
[4] = system: NasR wild type (Klebsiella oxytoca); experiment: fluorescence anisotropy; settings: 50 mM HEPES pH 7.5, 100 mM KCl, 1 mM MgCl2, with or without 1 mM KNO3; 50 nM Cy3-RNA final; 30 min in the dark, temperature not stated; Hill fit

| Compound | activation of RNA binding (Hill fit) [1] | binding signal (fold weaker than wild type) [2] | binding signal (fold weaker than wild type) [3] | Kd [4] [µM] |
| --- | --- | --- | --- | --- |
| O=[N+]([O-])O [nitrate] | RNA binding activity was only observed in conditions containing nitrate or nitrite |  |  |  |
| O=NO [nitrite] | RNA binding activity was only observed in conditions containing nitrate or nitrite |  |  |  |
| P1P2 two-hairpin RNA |  | 10 | 10 | 1 |
| P2 single-hairpin RNA |  |  |  | 12 |
